Source: PMC3418257

Target: glutathione-S-transferase coupled human VDR fusion protein (human) (UniProt P11473)
Assay: pull-down; GSThVDR-Sepharose bead slurry as bait, [35S]-labelled in vitro translated RUNX2 as prey; PPI buffer (20 mM HEPES pH 7.9, 200 mM KCl, 1 mM EDTA, 4 mM MgCl2, 1 mM dithiothreitol, 0.1% Nonidet P-40, 10% glycerol), beads pre-blocked with BSA; with or without 1,25(OH)2D3; SDS-PAGE, autoradiography, densitometry

Sequence of UniProt P11473 (P11473 whole entry, the tested form may be a part): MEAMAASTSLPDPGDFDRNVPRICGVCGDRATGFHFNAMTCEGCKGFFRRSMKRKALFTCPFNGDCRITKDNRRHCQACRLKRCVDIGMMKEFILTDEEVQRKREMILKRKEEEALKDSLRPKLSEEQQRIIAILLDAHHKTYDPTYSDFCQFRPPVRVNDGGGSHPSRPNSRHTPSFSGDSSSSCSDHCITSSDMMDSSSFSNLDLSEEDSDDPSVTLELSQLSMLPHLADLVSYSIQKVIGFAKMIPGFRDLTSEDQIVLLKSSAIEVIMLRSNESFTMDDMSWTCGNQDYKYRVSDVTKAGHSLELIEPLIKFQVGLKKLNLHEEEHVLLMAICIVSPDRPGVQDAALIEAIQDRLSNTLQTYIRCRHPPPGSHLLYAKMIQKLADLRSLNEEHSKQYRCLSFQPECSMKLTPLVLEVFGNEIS

percent of label recovered in pull down: 25%
Substance: human RUNX2 23Q wild type (natural protein)
